Test system: T1, OC[C@@H](O)[C@@H](O[C@@H]1O[C@H](CO[C@H]2OC[C@@H](O)[C@H](O)[C@H]2O)[C@@H](O[C@@H]2O[C@H](CO[C@H]3OC[C@@H](O)[C@H](O)[C@H]3O)[C@@H](O[C@@H]3O[C@H](CO[C@H]4OC[C@@H](O)[C@H](O)[C@H]4O)[C@@H](O)[C@H](O)[C@H]3O)[C@H](O)[C@H]2O)[C@H](O)[C@H]1O)[C@H](O)[C@@H](O)CO
T1 construct: called FvXTH6 by Opazo et al. 2017
Assay: radiochemical XET assay, 3H incorporation into xyloglucan, Michaelis-Menten
Assay type: biochemical, Fragaria vesca
Settings: acceptor substrate, donor 1% (w/v) tamarind xyloglucan, [3H]XXXGol diluted with unlabelled XXXGol (0-357 μM), labelled compound, general XET assay: 100 mM Na succinate pH 5.5, 25 °C

## FvXTH9 (Fragaria vesca subsp. vesca)
  Km: 43 µM
